The values that follow are results of earlier work, collected in publication PMC7191063.

In series [1] the target is trypsin (Bos taurus) (UniProt P00760).
For series [2] the target is unchanged. The source holds these as a separate data set.

Chain of UniProt P00760 (P00760 149-246): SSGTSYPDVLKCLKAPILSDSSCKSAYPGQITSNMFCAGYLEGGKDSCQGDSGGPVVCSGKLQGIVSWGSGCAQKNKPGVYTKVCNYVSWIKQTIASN

For orientation: Ki means a measure of affinity in units of concentration, obtained from inhibition or displacement. For the substance BWI-2c (from UniProt P86794), the Ki in series [1] is 0.174 nM.
By Kd is commonly meant the constant that tells how readily two partners part at equilibrium. With VhTI (from UniProt P85981), the Kd in series [2] was under 1 nM.
